Data published in the supplement of paper PMC10724198.
± gives the standard deviation of the averaged measurements.

system: Saccharomyces cerevisiae; test: protein stability index of tFT-peptide fusion (C-terminal peptide) (PSI (0-1 scale)); higher = more stable (slower turnover); conditions: genetic background: wild type; temperature: 30 C
Method: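 Multiplexed protein stability (MPS) profiling in S. cerevisiae. Random 12-aa peptides (tFT-X12 library) are fused to the C-terminus of a sfGFP-mCherry tandem fluorescent timer, after mCherry and a GGGS linker. Cells are FACS-sorted into 8 mCherry/sfGFP bins and deep-sequenced. The protein stability index (PSI) is the read-weighted bin average, scaled from 0 (unstable) to 1 (stable). Only peptides with >10 reads are reported; cells were grown at 30 °C in SC-His with glucose.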
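Also: PSI is a weighted mean of sequencing reads over stability bins, variants kept only with over 10 reads, mCherry proximal and sfGFP distal, peptide attached via GGGS linker.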

Row | Sequence | protein stability index
1 | FILCFPSLLSSL | 0.603 ± 0.022
2 | FISEYPQCAALG | 0.738 ± 0.078
3 | FKSYNNDLQDRI | 0.728 ± 0.16
4 | FKVILGEFPVAW | 0.674 ± 0.0086
5 | FLASPTPSHPRL | 0.787 ± 0.091
6 | FLDSFCFFPPLP | 0.778 ± 0.014
7 | FLFKLPPPPRCH | 0.678 ± 0.1
8 | FLFLFGCSPFFG | 0.727 ± 0.057
9 | FLIPPPFALPSL | 0.717 ± 0.08
10 | FLISFCFVGLVL | 0.55 ± 0.014
11 | FLLIFHSSPLPV | 0.574 ± 0.05
12 | FLLPPPPRASSF | 0.736 ± 0.066
13 | FLLRFSPASRAV | 0.691 ± 0.019
14 | FLLVSLKQCHGR | 0.73 ± 0.036
15 | FLMDSQGPWICR | 0.726 ± 0.076
16 | FLPPSVYAHPFP | 0.743 ± 0.083
17 | FLQHPPHVLHPY | 0.7013 ± 0.0069
18 | FLRILRLTPRRP | 0.728 ± 0.036
19 | FLRVVGFVCRWG | 0.679 ± 0.025
20 | FLRYVLLPSLFV | 0.499 ± 0.01
21 | FLSFTSLRTKGL | 0.743 ± 0.054
22 | FLSHRMNMSGLA | 0.658 ± 0.016
23 | FLSRFLSCLFYF | 0.576 ± 0.028
24 | FLTSFVDLCGFY | 0.682 ± 0.0082
25 | FLVFFRRPSRFF | 0.5856 ± 0.0058

Row | Sequence | protein stability index
26 | FLVKFYKYPSTR | 0.707 ± 0.12
27 | FMLRTCFLTTSK | 0.718 ± 0.027
28 | FMMRPPVSSKVS | 0.554 ± 0.0048
29 | FNETVLYIVPNG | 0.639 ± 0.065
30 | FNINRCLEGAHK | 0.717 ± 0.035
31 | FNVSNPVSLQTG | 0.641 ± 0.021
32 | FPCGARPFPLAF | 0.704 ± 0.049
33 | FPELLFLFSPSF | 0.723 ± 0.022
34 | FPFGRMNVSGGC | 0.701 ± 0.026
35 | FPHLAPTTHLLP | 0.673 ± 0.1
36 | FPLGRCPHIPPH | 0.664 ± 0.013
37 | FPLSLSFLSPLV | 0.705 ± 0.12
38 | FPPLCSSSPPLP | 0.7131 ± 0.0069
39 | FPPRLPPSPPLP | 0.666 ± 0.036
40 | FPRFACVLPAFH | 0.671 ± 0.081
41 | FPSPPPPAPLPP | 0.763 ± 0.039
42 | FPTPPPGPGPPP | 0.641 ± 0.03
43 | FPTSRAGSLIRR | 0.678 ± 0.053
44 | FPVARGRHWLSR | 0.732 ± 0.12
45 | FPVPPFFLSGHL | 0.651 ± 0.11
46 | FPVPPPPHPPLH | 0.675 ± 0.027
47 | FPYPFSSSCFSS | 0.651 ± 0.062
48 | FQGPPFKHVNSV | 0.701 ± 0.059
49 | FQIRGFFGLMAD | 0.754 ± 0.046
50 | FRASLFFVWLPS | 0.59 ± 0.085

Row | Sequence | protein stability index
51 | FRGGLLSLSAWV | 0.699 ± 0.02
52 | FRGRSSLSTSCG | 0.69 ± 0.023
53 | FRHSSAVLAPGV | 0.6896 ± 0.0057
54 | FRLPMIRVCWSL | 0.569 ± 0.025
55 | FRPCPLNSLSRY | 0.724 ± 0.021
56 | FRPFLPPSRTFS | 0.676 ± 0.008
57 | FRPLPFYRLSPP | 0.727 ± 0.021
58 | FRPLVDVKFPRY | 0.658 ± 0.13
59 | FRPNPCLSPCSA | 0.643 ± 0.1
60 | FRSENSWLLCSW | 0.786 ± 0.048
61 | FRSPRLSPSFFF | 0.717 ± 0.027
62 | FRSTKELLQLGR | 0.664 ± 0.055
63 | FRVSVRTVSSLR | 0.654 ± 0.037
64 | FSELTGFMSVRG | 0.652 ± 0.025
65 | FSFARFFSWSFS | 0.694 ± 0.13
66 | FSFFQFSASFFL | 0.699 ± 0.039
67 | FSGFGERFMISS | 0.6917 ± 0.0033
68 | FSGRGSSPVAVF | 0.544 ± 0.035
69 | FSHLLPAESPYP | 0.654 ± 0.086
70 | FSKDDFEVTPNS | 0.819 ± 0.079
71 | FSLLPYFPYALP | 0.739 ± 0.089
72 | FSLVHSFRLSFC | 0.599 ± 0.012
73 | FSMAHLDGGHRR | 0.676 ± 0.013
74 | FSRAPHFSGRLC | 0.502 ± 0.0087
75 | FSSCPPFRPFPL | 0.787 ± 0.04

Row | Sequence | protein stability index
76 | FSSTCLSSRFAI | 0.684 ± 0.07
77 | FSVDASLPLSSV | 0.6749 ± 0.0063
78 | FSVPLMLTFPRD | 0.721 ± 0.054
79 | FSVSLACYPSMC | 0.698 ± 0.075
80 | FTCRRYVGFMGG | 0.798 ± 0.025
81 | FTGAVGPCTCRY | 0.731 ± 0.023
82 | FTSLCLLFLFSL | 0.616 ± 0.085
83 | FTSRGLLILGFM | 0.619 ± 0.008
84 | FTTAGSGWESVW | 0.636 ± 0.041
85 | FVASRFLRCLVL | 0.495 ± 0.017
86 | FVFQYVVGNFAI | 0.617 ± 0.051
87 | FVISRPRLHSFC | 0.5663 ± 0.0032
88 | FVLGGLHAGYVL | 0.7146 ± 0.0038
89 | FVLRCLGLVLPV | 0.593 ± 0.077
90 | FVLRFRGMRPSN | 0.673 ± 0.019
91 | FVLRFVLSLVFF | 0.494 ± 0.083
92 | FVPLFVFSCSRS | 0.5 ± 0.014
93 | FVSLEVLFISSL | 0.5609 ± 0.0016
94 | FVVGGGLRMGAG | 0.62253 ± 0.00043
95 | FVVLALKESFSV | 0.605 ± 0.057
96 | FWCMLLAPFVNV | 0.657 ± 0.11
97 | FWDSCAVSLYLR | 0.632 ± 0.041
98 | FWVASREVGRAY | 0.608 ± 0.041
